In paper PMC9716568, “The structure of His-tagged Geobacillus stearothermophilus purine nucleoside phosphorylase reveals a ‘spanner in the works’” (Acta Crystallographica. Section F, Structural Biology …, 2022):

Target: the molecule itself
Assay: crystal structure; His-GsePNPase crystallized without ligands, 25 mg/ml in 50 mM HEPES pH 7.6, 100 mM NaCl, sitting drop, 291 K; three chains in the asymmetric unit, the hexamer generated by crystallographic symmetry; 1.72 Å

B1: N-terminally His-tagged purine nucleoside phosphorylase from Geobacillus stearothermophilus (enzyme)
chain: MHHHHHHSSGLVPRGSGMKETAAAKFERQHMDSPDLGTGSENLYFQGAMMSVHIGAKAGEIAERILLPGDPLRAKYIAETFLEGAVCYNEVRGMLGFTGTYKGERISVQGTGMGVPSISIYVNELIQSYGVKTLIRVGTCGAIQPDVRVRDVILAMSASTDSNMNRLIFRGRDYAPTADFHLLRTAYEVGVEKGLALKVGNVFTADMFYNDEPNWETWARYGVLAVEMETAALYTLAAKFGCRALSVLTVSDHILTGEETTAEERQMTFNEMIEVALEAAIRNGA
notes: hexameric purine nucleoside phosphorylase of Geobacillus stearothermophilus, KEGG GT50_19015, the open reading frame; the printed residue numbers (His4, Arg43, Arg87, Asp203) count from the first Met of this part; The whole construct as printed has 285 residues; The tag was not cleaved in the crystallized protein; also called His-GsePNPase; GsePNPase; source: E. coli BL21 (DE3), purified (IMAC on …)
- stoichiometry N: 6
